US20240117018A1

Tests used:
Assay in all cases: cell-based or functional assay
[1] = target: HIV-1 Env of pseudovirus 1012_11_TC21_3257 (HIV-1)
[2] = target: HIV-1 Env of pseudovirus 191084 B7-19 (HIV-1)
[3] = target: HIV-1 Env of pseudovirus 191955_A11 (HIV-1)
[4] = target: HIV-1 Env of pseudovirus 211-9 (HIV-1)
[5] = target: HIV-1 Env of pseudovirus 249M B10 (HIV-1)
[6] = target: HIV-1 Env of pseudovirus 6244_13_B5_4576 (HIV-1)
[7] = target: HIV-1 Env of pseudovirus 6535.3 (HIV-1)
[8] = target: HIV-1 Env of pseudovirus 7030102001E5(Rev-) (HIV-1)
[9] = target: HIV-1 Env of pseudovirus 89-F1_2_25 (HIV-1)
[10] = target: HIV-1 Env of pseudovirus BJOX009000.02.4 (HIV-1)
[11] = target: HIV-1 Env of pseudovirus BJOX010000.06.2 (HIV-1)
[12] = target: HIV-1 Env of pseudovirus C4118.c09 (HIV-1)
[13] = target: HIV-1 Env of pseudovirus CAP45.2.00.G3 (HIV-1)
[14] = target: HIV-1 Env of pseudovirus CNE19 (HIV-1)
[15] = target: HIV-1 Env of pseudovirus CNE53 (HIV-1)
[16] = target: HIV-1 Env of pseudovirus CNE58 (HIV-1)
[17] = target: HIV-1 Env of pseudovirus CNE8 (HIV-1)
[18] = target: HIV-1 Env of pseudovirus Ce0682_E4 (HIV-1)
[19] = target: HIV-1 Env of pseudovirus Ce1086_B2 (HIV-1)
[20] = target: HIV-1 Env of pseudovirus Ce1172_H1 (HIV-1)
[21] = target: HIV-1 Env of pseudovirus Ce2060_G9 (HIV-1)
[22] = target: HIV-1 Env of pseudovirus Ce703010054_2A2 (HIV-1)
[23] = target: HIV-1 Env of pseudovirus HIV-001428-2.42 (HIV-1)
[24] = target: HIV-1 Env of pseudovirus P1981_C5_3 (HIV-1)
[25] = target: HIV-1 Env of pseudovirus Q23.17 (HIV-1)
[26] = target: HIV-1 Env of pseudovirus Q461.e2 (HIV-1)
[27] = target: HIV-1 Env of pseudovirus RHPA4259.7 (HIV-1)
[28] = target: HIV-1 Env of pseudovirus SC422661.8 (HIV-1)
[29] = target: HIV-1 Env of pseudovirus T250-4 (HIV-1)
[30] = target: HIV-1 Env of pseudovirus T255-34 (HIV-1)
[31] = target: HIV-1 Env of pseudovirus THRO4156.18 (HIV-1)
[32] = target: HIV-1 Env of pseudovirus TRJO4551.58 (HIV-1)
[33] = target: HIV-1 Env of pseudovirus WEAU_d15_410_787 (HIV-1)
[34] = target: HIV-1 Env of pseudovirus WITO4160.33 (HIV-1)
[35] = target: HIV-1 Env of pseudovirus ZM214M.PL15 (HIV-1)
[36] = target: HIV-1 Env of pseudovirus ZM233M.PB6 (HIV-1)
[37] = target: HIV-1 Env of pseudovirus ZM53M.PB12 (HIV-1)

PGT151 (antibody)
neutralization IC50 [1]: > 50 µg/mL | neutralization IC80 [1]: > 50 µg/mL | neutralization IC50 [2]: 0.004 µg/mL | neutralization IC80 [2]: 0.016 µg/mL | neutralization IC50 [3]: 0.004 µg/mL | neutralization IC80 [3]: 0.014 µg/mL | IC50 (Titer in TZM.bl cells) [4]: 0.002 µg/mL | IC80 (Titer in TZM.bl cells) [4]: 0.01 µg/mL | neutralization IC50 [5]: 0.007 µg/mL | neutralization IC80 [5]: 0.023 µg/mL | neutralization IC50 [6]: > 50 µg/mL | neutralization IC80 [6]: > 50 µg/mL | neutralization IC50 [7]: < 0.001 µg/mL | neutralization IC80 [7]: 0.012 µg/mL | neutralization IC50 [8]: 0.001 µg/mL | neutralization IC80 [8]: 0.011 µg/mL | IC50 (Titer in TZM.bl cells) [9]: 22.9 µg/mL | IC80 (Titer in TZM.bl cells) [9]: > 50 µg/mL | IC50 (Titer in TZM.bl cells) [10]: > 50 µg/mL | IC80 (Titer in TZM.bl cells) [10]: > 50 µg/mL | IC50 (Titer in TZM.bl cells) [11]: > 50 µg/mL | IC80 (Titer in TZM.bl cells) [11]: > 50 µg/mL | IC50 (Titer in TZM.bl cells) [12]: > 50 µg/mL | IC80 (Titer in TZM.bl cells) [12]: > 50 µg/mL | neutralization IC50 [13]: 0.007 µg/mL | neutralization IC80 [13]: > 50 µg/mL | neutralization IC50 [14]: 0.014 µg/mL | neutralization IC80 [14]: > 50 µg/mL | neutralization IC50 [15]: > 50 µg/mL | neutralization IC80 [15]: > 50 µg/mL | neutralization IC50 [16]: 0.004 µg/mL | neutralization IC80 [16]: 0.016 µg/mL | IC50 (Titer in TZM.bl cells) [17]: > 50 µg/mL | IC80 (Titer in TZM.bl cells) [17]: > 50 µg/mL | neutralization IC50 [18]: > 50 µg/mL | neutralization IC80 [18]: > 50 µg/mL | neutralization IC50 [19]: 2.65 µg/mL | neutralization IC80 [19]: > 50 µg/mL | neutralization IC50 [20]: > 50 µg/mL | neutralization IC80 [20]: > 50 µg/mL | neutralization IC50 [21]: 0.135 µg/mL | neutralization IC80 [21]: > 50 µg/mL | neutralization IC50 [22]: 0.013 µg/mL | neutralization IC80 [22]: 0.075 µg/mL | neutralization IC50 [23]: 0.027 µg/mL | neutralization IC80 [23]: > 50 µg/mL | IC50 (Titer in TZM.bl cells) [24]: 0.021 µg/mL | IC80 (Titer in TZM.bl cells) [24]: > 50 µg/mL | neutralization IC50 [25]: 0.007 µg/mL | neutralization IC80 [25]: 0.045 µg/mL | neutralization IC50 [26]: 12.6 µg/mL | neutralization IC80 [26]: > 50 µg/mL | neutralization IC50 [27]: 0.006 µg/mL | neutralization IC80 [27]: 0.033 µg/mL | neutralization IC50 [28]: 0.005 µg/mL | neutralization IC80 [28]: 0.028 µg/mL | neutralization IC50 [29]: 0.005 µg/mL | neutralization IC80 [29]: 0.014 µg/mL | IC50 (Titer in TZM.bl cells) [30]: 0.002 µg/mL | IC80 (Titer in TZM.bl cells) [30]: 0.01 µg/mL | neutralization IC50 [31]: > 50 µg/mL | neutralization IC80 [31]: > 50 µg/mL | neutralization IC50 [32]: 0.496 µg/mL | neutralization IC80 [32]: 4.22 µg/mL | neutralization IC50 [33]: 0.01 µg/mL | neutralization IC80 [33]: > 50 µg/mL | neutralization IC50 [34]: 0.002 µg/mL | neutralization IC80 [34]: 0.021 µg/mL | neutralization IC50 [35]: 0.008 µg/mL | neutralization IC80 [35]: 0.045 µg/mL | neutralization IC50 [36]: 0.027 µg/mL | neutralization IC80 [36]: 5.16 µg/mL | neutralization IC50 [37]: > 50 µg/mL | neutralization IC80 [37]: > 50 µg/mL

N49P7.1 (antibody)
IC50 [1]: 0.063 µg/mL | IC80 [1]: 0.176 µg/mL | MPI [1]: 100 | IC50 [2]: 0.069 µg/mL | IC80 [2]: 0.2 µg/mL | MPI [2]: 100 | IC50 [3]: 1.99 µg/mL | IC80 [3]: 10.1 µg/mL | MPI [3]: 98 | IC50 [4]: 0.34 µg/mL | IC80 [4]: 1.17 µg/mL | MPI [4]: 100 | IC50 [5]: 0.053 µg/mL | IC80 [5]: 0.225 µg/mL | MPI [5]: 100 | IC50 [6]: 0.184 µg/mL | IC80 [6]: 0.493 µg/mL | MPI [6]: 100 | IC50 [7]: 0.224 µg/mL | IC80 [7]: 0.715 µg/mL | MPI [7]: 100 | IC50 [8]: 0.11 µg/mL | IC80 [8]: 0.498 µg/mL | MPI [8]: 100 | IC50 (neutralisation, TZM.bl cells) [9]: 41.6 µg/mL | IC80 (neutralisation, TZM.bl cells) [9]: > 50 µg/mL | MPI [9]: 58 | IC50 [10]: 0.219 µg/mL | IC80 [10]: 0.756 µg/mL | MPI [10]: 100 | IC50 [11]: 0.132 µg/mL | IC80 [11]: 0.623 µg/mL | MPI [11]: 100 | IC50 [12]: 0.048 µg/mL | IC80 [12]: 0.216 µg/mL | MPI [12]: 100 | IC50 [13]: 0.086 µg/mL | IC80 [13]: 0.567 µg/mL | MPI [13]: 100 | IC50 [14]: 0.027 µg/mL | IC80 [14]: 0.128 µg/mL | MPI [14]: 100 | IC50 [15]: 0.066 µg/mL | IC80 [15]: 0.228 µg/mL | MPI [15]: 100 | IC50 [16]: 0.049 µg/mL | IC80 [16]: 0.107 µg/mL | MPI [16]: 100 | IC50 [17]: 0.048 µg/mL | IC80 [17]: 0.167 µg/mL | MPI [17]: 100 | IC50 [18]: 0.026 µg/mL | IC80 [18]: 0.099 µg/mL | MPI [18]: 100 | IC50 [19]: 0.121 µg/mL | IC80 [19]: 0.742 µg/mL | MPI [19]: 99 | IC50 [20]: 17.1 µg/mL | IC80 [20]: > 50 µg/mL | MPI [20]: 78 | IC50 [21]: 0.473 µg/mL | IC80 [21]: 2.41 µg/mL | MPI [21]: 100 | IC50 [22]: 0.085 µg/mL | IC80 [22]: 0.364 µg/mL | MPI [22]: 100 | IC50 [23]: 0.009 µg/mL | IC80 [23]: 0.029 µg/mL | MPI [23]: 100 | IC50 (neutralisation, TZM.bl cells) [24]: 0.216 µg/mL | IC80 (neutralisation, TZM.bl cells) [24]: 0.494 µg/mL | MPI [24]: 100 | IC50 [25]: 0.077 µg/mL | IC80 [25]: 0.208 µg/mL | MPI [25]: 100 | IC50 [26]: 0.329 µg/mL | IC80 [26]: 1.14 µg/mL | MPI [26]: 100 | IC50 [27]: 0.108 µg/mL | IC80 [27]: 0.292 µg/mL | MPI [27]: 100 | IC50 [28]: 0.125 µg/mL | IC80 [28]: 0.417 µg/mL | MPI [28]: 100 | IC50 [29]: 2.27 µg/mL | IC80 [29]: 24.7 µg/mL | MPI [29]: 89 | IC50 [30]: 0.094 µg/mL | IC80 [30]: 0.447 µg/mL | MPI [30]: 100 | IC50 [31]: 3.07 µg/mL | IC80 [31]: 12.6 µg/mL | MPI [31]: 98 | IC50 [32]: 0.156 µg/mL | IC80 [32]: 0.529 µg/mL | MPI [32]: 100 | IC50 [33]: 0.058 µg/mL | IC80 [33]: 0.142 µg/mL | MPI [33]: 100 | IC50 [34]: 0.121 µg/mL | IC80 [34]: 0.326 µg/mL | MPI [34]: 100 | IC50 [35]: 0.257 µg/mL | IC80 [35]: 0.853 µg/mL | MPI [35]: 100 | IC50 [36]: 0.355 µg/mL | IC80 [36]: 1.25 µg/mL | MPI [36]: 100 | IC50 [37]: 0.287 µg/mL | IC80 [37]: 1 µg/mL | MPI [37]: 100
